In one data set the target is DMRT1 R123Q (Homo sapiens, UniProt Q9Y5R6 1-373, R123Q). The experiment in a line: EMSA. In general terms: A gel shift assay detects complexes by their altered migration in electrophoresis.
Another data set has as its target DMRT1 R123A (Homo sapiens, UniProt Q9Y5R6 1-373, R123A). Description: EMSA.
Data set [1] addresses T1, DMRT1 full-length (Homo sapiens, UniProt Q9Y5R6 1-373). Description: EMSA.
The next data set addresses DMRT1 67-136 (Homo sapiens, UniProt Q9Y5R6 67-136). The experiment in a line: X-ray crystallography.
In data set [2] the target is T1, DMRT1 full-length. Description: EMSA. The source holds these as a separate data set.
For data set [3], the target named is T2, SUMO-DMRT1 67-136 (Homo sapiens, UniProt Q9Y5R6 67-136). The experiment in a line: EMSA.
T2 sequence (Q9Y5R6 67-136): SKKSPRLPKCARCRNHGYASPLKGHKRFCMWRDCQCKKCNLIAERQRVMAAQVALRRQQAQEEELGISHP
Data set [4] deals with T3, DMRT1 full-length;DMRT1 R111G (Homo sapiens;Homo sapiens, UniProt Q9Y5R6;Q9Y5R6 1-373;1-373, |R111G). Description: EMSA.
T3 sequence (Q9Y5R6 whole entry, stated change not applied, chain 1 of 2): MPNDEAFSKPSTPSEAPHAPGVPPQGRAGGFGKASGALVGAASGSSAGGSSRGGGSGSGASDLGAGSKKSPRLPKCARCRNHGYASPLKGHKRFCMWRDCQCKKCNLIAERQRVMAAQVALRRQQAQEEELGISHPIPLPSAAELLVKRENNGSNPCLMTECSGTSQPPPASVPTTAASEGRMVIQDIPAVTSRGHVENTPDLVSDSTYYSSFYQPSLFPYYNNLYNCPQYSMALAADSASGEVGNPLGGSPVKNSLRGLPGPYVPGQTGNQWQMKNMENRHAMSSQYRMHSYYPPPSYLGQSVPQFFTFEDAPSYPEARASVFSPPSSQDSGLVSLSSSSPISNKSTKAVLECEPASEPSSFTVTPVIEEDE
T3 sequence (Q9Y5R6 whole entry R111G, chain 2 of 2): as the sequence (Q9Y5R6 whole entry, stated change not applied, chain 1 of 2) above, with R111G counted along it
For data set [5], the target named is T3, DMRT1 full-length;DMRT1 R111G. Description: EMSA. The source holds these as a separate data set.
For data set [6], the target named is T1, DMRT1 full-length. Description: EMSA. The source holds these as a separate data set.
For data set [7], the target named is T2, SUMO-DMRT1 67-136. Description: EMSA. This is another data set of the same source.

Like-named read-outs stand apart in the source and are kept apart here.

T1 sequence (Q9Y5R6 whole entry): as the sequence (Q9Y5R6 whole entry, stated change not applied, chain 1 of 2) above
Chain of DMRT1 R123A (Q9Y5R6 whole entry R123A): as the sequence (Q9Y5R6 whole entry, stated change not applied, chain 1 of 2) above, with R123A counted along it
Chain of DMRT1 67-136 (Q9Y5R6 67-136): as the sequence (Q9Y5R6 67-136) above
Chain of DMRT1 R123Q (Q9Y5R6 whole entry R123Q): as the sequence (Q9Y5R6 whole entry, stated change not applied, chain 1 of 2) above, with R123Q counted along it

B1: Site 1 (49 bp) (dsDNA)
DNA 1: GTGGCTGGGCAGAGATTTGATACATTGTTGCTCGATGGAGGTCAGGTCT
DNA 2: AGACCTGACCTCCATCGAGCAACAATGTATCAAATCTCTGCCCAGCCAC
B1: the binding result with DMRT1 R123Q and in the data set with DMRT1 R123A was “no binding” each time.

B2: Site 2 (27 bp) (dsDNA)
DNA 1: GAGATTTGATACATTGTTACTTTATGG
DNA 2: CCATAAAGTAACAATGTATCAAATCTC
In the case of B2, the binding result with DMRT1 full-length [1] was “binds”.

B3: Site 1 crystal 25-mer (dsDNA)
DNA 1: CGAGATTTGATACATTGTTGCTCGA
DNA 2: TCGAGCAACAATGTATCAAATCTCG
Consider B3, for which the binding result with DMRT1 67-136 is “binds”.

B4: Site 1 (27 bp) (dsDNA)
DNA 1: GAGATTTGATACATTGTTGCTCGATGG
DNA 2: CCATCGAGCAACAATGTATCAAATCTC
Regarding B4, the binding result (with DMRT1 full-length [2]; with SUMO-DMRT1 67-136 [3]; in [4]) was “binds” each time.

B5: Sox9 site (dsDNA)
DNA 1: GTGGCTGGGCACCCTGCAGAGACAATGTTTCCAGCTGCAGGTCAGGTCT
DNA 2: AGACCTGACCTGCAGCTGGAAACATTGTCTCTGCAGGGTGCCCAGCCAC
Consider B5, for which the binding result (in [5]; with DMRT1 full-length [2]) was “binds” in each case.

B6: Site 3 (27 bp) (dsDNA)
DNA 1: GAGATTTGATACATTATTAATTTATGG
DNA 2: CCATAAATTAATAATGTATCAAATCTC
Turning to B6, the binding result with DMRT1 full-length [6] was “binds”.

B7: Site 4 (27 bp) (dsDNA)
DNA 1: TTGCTATGATACATTGTATCTTGCTGG
DNA 2: CCAGCAAGATACAATGTATCATAGCAA
Regarding B7, the binding result with SUMO-DMRT1 67-136 [7] is “binds”.

Source of the values: publication PMC4476070.
